The target in the assay is T1, Smith-Magenis syndrome chromosome region, candidate 8 (SMCR8), wild type (human, UniProt Q8TEV9 1-937).
T1 sequence: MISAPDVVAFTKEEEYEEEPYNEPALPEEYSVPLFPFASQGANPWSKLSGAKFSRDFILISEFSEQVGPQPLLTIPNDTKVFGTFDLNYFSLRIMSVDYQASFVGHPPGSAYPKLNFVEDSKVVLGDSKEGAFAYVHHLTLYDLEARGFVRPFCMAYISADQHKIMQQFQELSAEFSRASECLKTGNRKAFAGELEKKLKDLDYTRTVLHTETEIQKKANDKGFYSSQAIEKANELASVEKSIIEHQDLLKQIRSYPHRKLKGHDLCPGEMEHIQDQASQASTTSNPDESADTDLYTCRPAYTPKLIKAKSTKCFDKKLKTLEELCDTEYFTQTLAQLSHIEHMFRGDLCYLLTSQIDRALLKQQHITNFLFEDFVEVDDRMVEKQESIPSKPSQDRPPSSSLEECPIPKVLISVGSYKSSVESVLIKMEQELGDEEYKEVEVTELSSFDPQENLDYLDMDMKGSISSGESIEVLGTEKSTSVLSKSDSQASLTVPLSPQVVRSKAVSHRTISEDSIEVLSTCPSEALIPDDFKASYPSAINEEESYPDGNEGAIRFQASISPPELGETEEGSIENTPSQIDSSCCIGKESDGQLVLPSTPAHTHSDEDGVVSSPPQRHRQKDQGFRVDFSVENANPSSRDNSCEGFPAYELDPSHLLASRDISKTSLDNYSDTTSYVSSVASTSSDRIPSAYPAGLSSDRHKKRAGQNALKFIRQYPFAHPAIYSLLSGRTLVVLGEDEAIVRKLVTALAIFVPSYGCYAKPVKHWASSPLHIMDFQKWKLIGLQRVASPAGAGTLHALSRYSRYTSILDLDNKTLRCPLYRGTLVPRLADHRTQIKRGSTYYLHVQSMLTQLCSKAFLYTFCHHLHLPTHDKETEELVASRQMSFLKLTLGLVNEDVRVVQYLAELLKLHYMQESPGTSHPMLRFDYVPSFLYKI
As to the kind of experiment: cryo-EM structure.

B1: C9orf72, wild type, GST tag removed by TEV (in purified SCARF and L-SCARF) (natural protein)
chain: MSTLCPPPSPAVAKTEIALSGKSPLLAATFAYWDNILGPRVRHIWAPKTEQVLLSDGEITFLANHTLNGEILRNAESGAIDVKFFVLSEKGVIIVSLIFDGNWNGDRSTYGLSIILPQTELSFYLPLHRVCVDRLTHIIRKGRIWMHKERQENVQKIILEGTERMEDQGQSIIPMLTGEVIPVMELLSSMKSHSVPEEIDIADTVLNDDDIGDSCHEGFLLNAISSHLQTCGCSVVVGSSAEKVNKIVRTLCLFLTPAERKCSRLCEAESSFKYESGLFVQGLLKDSTGSFVLPFRQVMYAPYPTTHIDVDVNTVKQMPPCHEHIYNQRRYMRSELTAFWRATSEEDMAQDTIIYTDESFTPDLNIFQDVLHRDTLVKAFLDQVFQLKPGLSLRSTFLAQFLLVLHRKALTLIKYIEDDTQKGKKPFKSLRNLKIDLDLTAEGDLNIIMALAEKIKPGLHSFIFGRPFYTSVQERDVLMTF
With B1, the binding result is reported as “binds”.

B2: WD repeat-containing protein 41 (WDR41), wild type, without a tag (natural protein)
chain: MLRWLIGGGREPQGLAEKSPLQTIGEEQTQNPYTELLVLKAHHDIVRFLVQLDDYRFASAGDDGIVVVWNAQTGEKLLELNGHTQKITAIITFPSLESCEEKNQLILTASADRTVIVWDGDTTRQVQRISCFQSTVKCLTVLQRLDVWLSGGNDLCVWNRKLDLLCKTSHLSDTGISALVEIPKNCVVAAVGKELIIFRLVAPTEGSLEWDILEVKRLLDHQDNILSLINVNDLSFVTGSHVGELIIWDALDWTMQAYERNFWDPSPQLDTQQEIKLCQKSNDISIHHFTCDEENVFAAVGRGLYVYSLQMKRVIACQKTAHDSNVLHVARLPNRQLISCSEDGSVRIWELREKQQLAAEPVPTGFFNMWGFGRVSKQASQPVKKQQENATSCSLELIGDLIGHSSSVEMFLYFEDHGLVTCSADHLIILWKNGERESGLRSLRLFQKLEENGDLYLAV
Consider B2, for which the binding result is listed as “binds”.

The values are drawn from doi:10.1101/2020.04.15.042515 (bioRxiv, 2020).
